Results taken from paper PMC2709985 (Biochemistry, 2009).

What was measured:
Sfp [1] = target: T1, Sfp (Bacillus subtilis, UniProt P39135); assay: tritium incorporation into apo MBP-PhsA-His6; type: biochemical; details: acceptor apo MBP-PhsA-His6; labelled compound
T1 sequence (P39135 1-224): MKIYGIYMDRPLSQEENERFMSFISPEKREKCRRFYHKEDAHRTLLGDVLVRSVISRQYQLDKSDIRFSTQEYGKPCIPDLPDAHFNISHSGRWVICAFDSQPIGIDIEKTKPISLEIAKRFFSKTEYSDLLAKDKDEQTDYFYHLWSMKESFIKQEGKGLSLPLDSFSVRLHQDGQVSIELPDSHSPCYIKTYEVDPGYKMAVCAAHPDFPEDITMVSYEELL

Sfp [2] = target: T1, Sfp; assay: fluorescent labelling of apo MBP-PhsA-His6, SDS-PAGE; type: biochemical; details: acceptor apo MBP-PhsA-His6; labelled compound
ATP-PPi exchange assay [3] = substrate: CC(=O)N[C@@H](CCC(=O)O)C(=O)O; assay: ATP-PPi exchange assay; type: biochemical, Streptomyces viridochromogenes; details: holo form (phosphopantetheinylated by Sfp), apparent constant
ATP-PPi exchange assay [4] = substrate: CC(=O)N[C@@H](CC[PH](=O)O)C(=O)O; assay: ATP-PPi exchange assay; type: biochemical, Streptomyces viridochromogenes; details: holo form (phosphopantetheinylated by Sfp), apparent constant

For `CC(=O)SCCNC(=O)CCNC(=O)[C@H](O)C(C)(C)COP(=O)(O)OP(=O)(O)OC[C@H]1O[C@@H](n2cnc3c(N)ncnc32)[C@H](O)[C@@H]1OP(=O)(O)O` [[^3H]acetyl-CoA], the “tritium incorporation into apo MBP-PhsA-His6” value (Sfp [1]) was “[^3H]acetyl-CoA was utilized as a cosubstrate, resulting in a time-dependent increase”.

With `CC1=CC(C)=[N+]2C1=Cc1ccc(CCC(=O)NCCN3C(=O)CC(SCCNC(=O)CCNC(=O)[C@H](O)C(C)(C)COP(=O)(O)OP(=O)(O)OC[C@H]4O[C@@H](n5cnc6c(N)ncnc65)[C@H](O)[C@@H]4OP(=O)(O)O)C3=O)n1[B-]2(F)F` (some centres unmarked) [BODIPY-FL-N-(2-aminoethyl)maleimidyl-S-CoA] the “fluorescent labelling of apo MBP-PhsA-His6, SDS-PAGE” value (Sfp [2]) was “CoA analogue BODIPY-FL-N-(2-aminoethyl)maleimidyl-S-CoA was employed to install a fluorescently labeled phosphopantetheine arm”.

B1: MBP−PhsA−His6 (Streptomyces viridochromogenes) (protein)
chain: MTAATPDTAPDRTGPSPGACPVVAEFARRAQAGPDRPAVVLPEETVDYRELAARADAVARALLDSRGEGSEPVPLMVLHPAWMLAACLGVLKAGKYYVPLNPHHPDARNRDLLARLGAALVVTDGAVPGRLPGRITVLSVGELDVRPGTPGEPGPAVAPDQWAYALYTSGSTGLPKGILQNRADMRQNIDRHAALGIGPEDRVTLINADGFVAAVSNPYMALLNGAALVPYSFQRDGVHDLIDRLDAAGTTVYYSFPSFLRQAAAVSEGRTTDRVRLAYLGGESVHSSDVLAARRLFPAATVAVGLNSTETGLTRLRLIPPGAEVPDPVPVGGPVPGVEVRVEASPGRPAAVGEAGRIVVRSAFLHAAQWTDQGPRPLTEAVPEADSGTACEPAPRDFRTGDRGRLDGTGQLVHLGRVDGMVKVRGYRVETVEVESAVSAVTGVAEAAVVPYETAEHATELAAYVVAKDPDLTDAALRRALSETLPTHLVPSSVLLVPRLPRTRNGKIDRKALPDPASGTSGTAVSRPAPAHTPAPAPGDGPDEARARVLGQVGEIWSDVLGAGPVLPGDDFFSLGGTSISALRVVSRIRKELGVPLRLAVIFETPSLEAVAESVLRELKGT
Molecule B1 has a Km (ATP-PPi exchange assay [3]) of 493 ± 82 µM, a kcat (ATP-PPi exchange assay [3]) of 0.48 ± 0.025 s⁻¹ and a kcat/Km (ATP-PPi exchange assay [3]) of 973 ± 167 M⁻¹ s⁻¹. It also gave a Km (ATP-PPi exchange assay [4]) of 254 ± 44 µM, a kcat (ATP-PPi exchange assay [4]) of 2.08 ± 0.108 s⁻¹ and a kcat/Km (ATP-PPi exchange assay [4]) of 8170 ± 1500 M⁻¹ s⁻¹.
